One data set deals with PP-1c (Homo sapiens) (UniProt P62136). The following applies: cited from earlier work.
In data set [1] the target is T1, Protein phosphatase-1cα (PP-1cα) (human, UniProt P62136 1-330). In words: crystal structure.
The target of the next data set is p53 DBD (human, UniProt P04637 94-292). In words: EMSA.
For data set [2], the target named is T1, Protein phosphatase-1cα (PP-1cα). The experiment in a line: SEC-MALS.

T1 sequence (P62136 whole entry): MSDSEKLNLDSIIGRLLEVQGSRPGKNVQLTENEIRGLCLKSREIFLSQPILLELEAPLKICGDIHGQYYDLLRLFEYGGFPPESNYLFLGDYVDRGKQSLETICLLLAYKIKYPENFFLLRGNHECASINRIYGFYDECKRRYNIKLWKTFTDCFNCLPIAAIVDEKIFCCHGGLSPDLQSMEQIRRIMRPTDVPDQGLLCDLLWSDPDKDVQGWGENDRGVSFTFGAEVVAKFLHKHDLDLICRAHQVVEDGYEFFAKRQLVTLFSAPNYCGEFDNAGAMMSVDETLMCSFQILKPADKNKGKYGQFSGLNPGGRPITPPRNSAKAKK
Sequence of p53 DBD (P04637 94-292): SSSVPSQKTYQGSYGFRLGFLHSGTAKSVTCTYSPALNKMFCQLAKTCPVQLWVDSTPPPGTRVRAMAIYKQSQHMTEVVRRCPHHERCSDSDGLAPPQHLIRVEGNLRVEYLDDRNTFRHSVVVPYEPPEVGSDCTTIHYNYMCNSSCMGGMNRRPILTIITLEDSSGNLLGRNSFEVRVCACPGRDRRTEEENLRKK
Sequence of PP-1c (Homo sapiens) (P62136 2-330): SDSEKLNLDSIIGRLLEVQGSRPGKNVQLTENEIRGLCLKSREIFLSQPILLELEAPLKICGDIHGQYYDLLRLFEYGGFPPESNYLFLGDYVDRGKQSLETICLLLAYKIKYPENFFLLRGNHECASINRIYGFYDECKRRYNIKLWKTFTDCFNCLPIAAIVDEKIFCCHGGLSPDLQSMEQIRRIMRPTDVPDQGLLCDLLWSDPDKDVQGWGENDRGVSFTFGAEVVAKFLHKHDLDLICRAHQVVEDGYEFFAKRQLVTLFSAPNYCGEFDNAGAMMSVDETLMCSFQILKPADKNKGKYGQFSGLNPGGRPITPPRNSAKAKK

For iASPP (from UniProt Q8WUF5), in the data set with PP-1c (Homo sapiens), the Kd was 0.026 µM.

B1: iASPP_(608–828) (domain or fragment, human, UniProt Q8WUF5 608-828, looked up)
chain: RSVLRKAGSPRKARRARLNPLVLLLDAALTGELEVVQQAVKEMNDPSQPNEEGITALHNAICGANYSIVDFLITAGANVNSPDSHGWTPLHCAASCNDTVICMALVQHGAAIFATTLSDGATAFEKCDPYREGYADCATYLADVEQSMGLMNSGAVYALWDYSAEFGDELSFREGESVTVLRRDGPEETDWWWAALHGQEGYVPRNYFGLFPRVKPQRSKV
As for B1, the binding result in data set [1] is given as “binds”.

B2: PUMA p53 site (dsDNA)
DNA 1: CGCGCCTGCAAGTCCTGACTTGTCCGCGGC
DNA 2: GCCGCGGACAAGTCAGGACTTGCAGGCGCG
Consider B2, for which, in the data set with p53 DBD, the binding result is recorded as “binds”.

B3: iASPP(621–828) (domain or fragment, human, UniProt Q8WUF5 621-828, looked up)
chain: RRARLNPLVLLLDAALTGELEVVQQAVKEMNDPSQPNEEGITALHNAICGANYSIVDFLITAGANVNSPDSHGWTPLHCAASCNDTVICMALVQHGAAIFATTLSDGATAFEKCDPYREGYADCATYLADVEQSMGLMNSGAVYALWDYSAEFGDELSFREGESVTVLRRDGPEETDWWWAALHGQEGYVPRNYFGLFPRVKPQRSKV
Turning to B3, the binding result in data set [2] was “binds”.

B4: ASPP2_(905–1128) (domain or fragment, human, UniProt Q13625 905-1128, looked up)
chain: RTNLRKTGSERIAHGMRVKFNPLALLLDSSLEGEFDLVQRIIYEVDDPSLPNDEGITALHNAVCAGHTEIVKFLVQFGVNVNAADSDGWTPLHCAASCNNVQVCKFLVESGAAVFAMTYSDMQTAADKCEEMEEGYTQCSQFLYGVQEKMGIMNKGVIYALWDYEPQNDDELPMKEGDCMTIIHREDEDEIEWWWARLNDKEGYVPRNLLGLYPRIKPRQRSLA
As for B4, the binding result in data set [2] is recorded as “binds”.

Values taken from publication PMC6827562 (Structure (London, England : 1993), 2019).
